Measurements taken from article PMC11610247.

Columns and labels:
[1] = target: SNAP-flag-tagged GLP1R p.R380C (human) (UniProt P43220); test: AlphaScreen or HTRF
[2] = target: SNAP-flag-tagged WT GLP1R (glucagon-like peptide 1 receptor) (human) (UniProt P43220); test: AlphaScreen or HTRF

Substance | IC50 [1] [nM] | pIC50 [2]
exendin-4 (from UniProt P26349 48-87) (peptide) | 400 | –
exendin-4 (from UniProt P26349 48-87) (peptide; other documents disagree on this pair) | – | 8.13
